This is an account of results in paper PMC5467005, “Functional Characterization of Tea (Camellia sinensis) MYB4a Transcription Factor Using an Integrative Approach”.

Substitutions are numbered along the chain they refer to.

The series addresses CsMYB4a (Camellia sinensis, UniProt A0A1V0G0T8 1-244). Briefly: EMSA; Not given; EMSA according to Shen et al. 2012; salmon sperm DNA as non-specific competitor. The following applies: protein: recombinant; tags: N-terminal His-tag; blunt.

Sequence of CsMYB4a (A0A1V0G0T8 entry or part of it): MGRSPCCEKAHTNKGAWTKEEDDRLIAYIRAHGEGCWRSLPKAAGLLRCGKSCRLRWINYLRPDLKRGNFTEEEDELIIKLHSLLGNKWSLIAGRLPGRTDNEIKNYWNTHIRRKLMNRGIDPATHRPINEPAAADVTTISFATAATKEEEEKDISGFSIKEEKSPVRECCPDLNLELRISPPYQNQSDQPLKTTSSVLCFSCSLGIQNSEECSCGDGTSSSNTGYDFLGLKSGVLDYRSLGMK

B1: AC-III probe (dsDNA)
DNA 1: CCAGTCCACCTAACTCTACCTAACTCTACCTAACGCTGTTC
DNA 2: GAACAGCGTTAGGTAGAGTTAGGTAGAGTTAGGTGGACTGG
Regarding B1, the binding result was “binds”.

B2: AC-IV probe (dsDNA)
DNA 1: B1 DNA 1 with T11A, T21A, T31A
DNA 2: B1 DNA 2 with A11T, A21T, A31T
B2: the binding result is recorded as “binds”.

B3: AC-I probe (dsDNA)
DNA 1: CGGTACCAGTCCACCTACCGCCACCTACCGCCACCTACCGCTGTTCTCGA
DNA 2: TCGAGAACAGCGGTAGGTGGCGGTAGGTGGCGGTAGGTGGACTGGTACCG
With B3, the binding result was “binds”.

B4: AC-II probe (dsDNA)
DNA 1: B3 DNA 1 with T16A, T26A, T36A
DNA 2: B3 DNA 2 with A15T, A25T, A35T
For B4, the binding result was “binds”.
